B1: peptide HD2 (from tick evasin EVA4) / CCL19 (biotinylated, synthetic) (parent complex)
chain 1: EEDDYTAYAPLTCYFT
chain 2: GTNDAEDCCLSVTQKPIPGYIVRNFHYLLIKDGCRVPAVVFTTLRGRQLCAPPDQPWVERIIQRLQRTSAKMKRRSS
B2: peptide HD2 (from tick evasin EVA4) / CXCL13 (biotinylated, synthetic) (parent complex)
chain 1: EEDDYTAYAPLTCYFT
chain 2: VLEVYYTSLRCRCVQESSVFIPRRFIDRIQILPRGNGCPRKEIIVWKKNKSIVCVDPQAEWIQRMMEVLRKRSSSTLPVPVFKRKIP

Variants of: B1

Variant | enrichment
chain 1 F15S | -6.94 log2 (difference from the parental peptide)
chain 1 F15D | -7.57 log2 (difference from the parental peptide)
chain 1 F15M | -6.46 log2 (difference from the parental peptide)
chain 1 F15W | -0.785 log2 (difference from the parental peptide)
chain 1 F15C | -6.81 log2 (difference from the parental peptide)
chain 1 F15G | -8.74 log2 (difference from the parental peptide)
chain 1 F15L | -2.93 log2 (difference from the parental peptide)
chain 1 F15A | -5.34 log2 (difference from the parental peptide)
chain 1 Y8L | -8.33 log2 (difference from the parental peptide)
chain 1 Y8V | -4.57 log2 (difference from the parental peptide)
chain 1 Y8M | -4.14 log2 (difference from the parental peptide)
chain 1 A7T | -0.798 log2 (difference from the parental peptide)
chain 1 A7P | -4.29 log2 (difference from the parental peptide)
chain 1 A7Q | 0.522 log2 (difference from the parental peptide)
chain 1 A7I | 1.38 log2 (difference from the parental peptide)
chain 1 A7L | 1.76 log2 (difference from the parental peptide)
chain 1 A7F | 1.3 log2 (difference from the parental peptide)
chain 1 A7R | -0.336 log2 (difference from the parental peptide)
chain 1 A7V | 0.465 log2 (difference from the parental peptide)
chain 1 Y14H | -4.96 log2 (difference from the parental peptide)
chain 1 Y14I | -6.25 log2 (difference from the parental peptide)
chain 1 Y14A | -9.01 log2 (difference from the parental peptide)
chain 1 Y14V | -7.09 log2 (difference from the parental peptide)

Variant | enrichment
chain 1 Y14M | -7.94 log2 (difference from the parental peptide)
chain 1 Y14W | -2.78 log2 (difference from the parental peptide)
chain 1 L11A | -6.47 log2 (difference from the parental peptide)
chain 1 L11H | -5.81 log2 (difference from the parental peptide)
chain 1 L11F | -0.375 log2 (difference from the parental peptide)
chain 1 L11Q | -1.91 log2 (difference from the parental peptide)
chain 1 L11S | -5.08 log2 (difference from the parental peptide)
chain 1 L11V | -0.0786 log2 (difference from the parental peptide)
chain 1 P10M | -7.47 log2 (difference from the parental peptide)
chain 1 P10Y | -6.54 log2 (difference from the parental peptide)
chain 1 P10W | -2.06 log2 (difference from the parental peptide)
chain 1 P10F | -4.06 log2 (difference from the parental peptide)
chain 1 T12P | -4.32 log2 (difference from the parental peptide)
chain 1 T12A | -4.86 log2 (difference from the parental peptide)
chain 1 T12R | -3.3 log2 (difference from the parental peptide)
chain 1 T12Y | 3.73 log2 (difference from the parental peptide)
chain 1 T12K | -6.56 log2 (difference from the parental peptide)
chain 1 T12S | -6.54 log2 (difference from the parental peptide)
chain 1 T12N | -6.73 log2 (difference from the parental peptide)
chain 1 C13D | -7.13 log2 (difference from the parental peptide)
chain 1 C13N | -2.93 log2 (difference from the parental peptide)
chain 1 C13L | -7.7 log2 (difference from the parental peptide)
chain 1 C13P | -6.25 log2 (difference from the parental peptide)

Variant | enrichment
chain 1 Y5F | -2.5 log2 (difference from the parental peptide)
chain 1 Y5C | -4.33 log2 (difference from the parental peptide)
chain 1 Y5I | -6.6 log2 (difference from the parental peptide)
chain 1 Y5H | -6.3 log2 (difference from the parental peptide)
chain 1 Y5T | -5.05 log2 (difference from the parental peptide)
chain 1 Y5L | -3.97 log2 (difference from the parental peptide)
chain 1 Y5W | 3.19 log2 (difference from the parental peptide)
chain 1 Y5M | -5.03 log2 (difference from the parental peptide)
chain 1 Y5D | -5.02 log2 (difference from the parental peptide)
chain 1 T6D | 2.57 log2 (difference from the parental peptide)
chain 1 T6K | -1.49 log2 (difference from the parental peptide)
chain 1 T6Q | -0.425 log2 (difference from the parental peptide)
chain 1 T6V | -2.16 log2 (difference from the parental peptide)
chain 1 T6P | -4.5 log2 (difference from the parental peptide)
chain 1 T6N | -0.836 log2 (difference from the parental peptide)
chain 1 T6L | 1.3 log2 (difference from the parental peptide)
chain 1 T6F | 2.62 log2 (difference from the parental peptide)
chain 1 T6I | -2.29 log2 (difference from the parental peptide)
chain 1 T6H | -2.26 log2 (difference from the parental peptide)
chain 1 T6E | 1.9 log2 (difference from the parental peptide)
chain 1 T6A | -0.907 log2 (difference from the parental peptide)
chain 1 D3S | -8.53 log2 (difference from the parental peptide)
chain 1 D3E | -0.508 log2 (difference from the parental peptide)

Variant | enrichment
chain 1 D3V | -8.31 log2 (difference from the parental peptide)
chain 1 D3P | -6.49 log2 (difference from the parental peptide)
chain 1 D4Y | 0.0224 log2 (difference from the parental peptide)
chain 1 A9V | -6.04 log2 (difference from the parental peptide)
chain 1 A9P | -3.61 log2 (difference from the parental peptide)
chain 1 A9E | -4.22 log2 (difference from the parental peptide)
chain 1 A9W | 2 log2 (difference from the parental peptide)
chain 1 E2W | 3.67 log2 (difference from the parental peptide)
chain 1 E2A | -0.338 log2 (difference from the parental peptide)
chain 1 E2C | -4.17 log2 (difference from the parental peptide)
chain 1 E1V | -1.37 log2 (difference from the parental peptide)
chain 1 E1W | 3.38 log2 (difference from the parental peptide)
chain 1 E1I | -1.84 log2 (difference from the parental peptide)
chain 1 T16K | -6.25 log2 (difference from the parental peptide)
chain 1 T16H | -3.46 log2 (difference from the parental peptide)
chain 1 T16L | 0.688 log2 (difference from the parental peptide)
chain 1 T16N | -5.68 log2 (difference from the parental peptide)
chain 1 T16I | 0.728 log2 (difference from the parental peptide)
chain 1 T16E | -1.61 log2 (difference from the parental peptide)
chain 1 T16V | 0.157 log2 (difference from the parental peptide)

Variants of: B2

Variant | enrichment
chain 1 T6F | 1.42 log2 (difference from the parental peptide)
chain 1 T6Y | 3.32 log2 (difference from the parental peptide)
chain 1 T6S | 2.15 log2 (difference from the parental peptide)
chain 1 T12Y | -0.431 log2 (difference from the parental peptide)
chain 1 T12W | -0.341 log2 (difference from the parental peptide)
chain 1 T12R | -8.86 log2 (difference from the parental peptide)
chain 1 T12P | -5.86 log2 (difference from the parental peptide)
chain 1 Y8S | -4.52 log2 (difference from the parental peptide)
chain 1 Y8H | -6.35 log2 (difference from the parental peptide)
chain 1 Y8I | -4.99 log2 (difference from the parental peptide)
chain 1 Y8E | -1.96 log2 (difference from the parental peptide)
chain 1 L11R | -5.68 log2 (difference from the parental peptide)
chain 1 L11T | -3.85 log2 (difference from the parental peptide)
chain 1 D4N | -3.74 log2 (difference from the parental peptide)
chain 1 D4H | -5.54 log2 (difference from the parental peptide)
chain 1 D4W | -0.19 log2 (difference from the parental peptide)
chain 1 D4F | -4.23 log2 (difference from the parental peptide)
chain 1 C13I | -4.63 log2 (difference from the parental peptide)
chain 1 C13E | -6.71 log2 (difference from the parental peptide)
chain 1 C13V | -5.3 log2 (difference from the parental peptide)
chain 1 D3Q | -3.76 log2 (difference from the parental peptide)

Variant | enrichment
chain 1 D3G | -5.23 log2 (difference from the parental peptide)
chain 1 D3V | -5.31 log2 (difference from the parental peptide)
chain 1 D3Y | -2.28 log2 (difference from the parental peptide)
chain 1 D3T | -4.07 log2 (difference from the parental peptide)
chain 1 D3W | -0.789 log2 (difference from the parental peptide)
chain 1 T16Y | -0.167 log2 (difference from the parental peptide)
chain 1 T16A | 0.703 log2 (difference from the parental peptide)
chain 1 T16C | 0.44 log2 (difference from the parental peptide)
chain 1 A7G | 1.15 log2 (difference from the parental peptide)
chain 1 A7M | 3.01 log2 (difference from the parental peptide)
chain 1 A7I | 0.819 log2 (difference from the parental peptide)
chain 1 A7V | 0.636 log2 (difference from the parental peptide)
chain 1 A7F | 0.877 log2 (difference from the parental peptide)
chain 1 A7P | 1.36 log2 (difference from the parental peptide)
chain 1 E1P | -3.73 log2 (difference from the parental peptide)
chain 1 E1T | -1.65 log2 (difference from the parental peptide)
chain 1 E1A | -0.971 log2 (difference from the parental peptide)
chain 1 P10E | -2.35 log2 (difference from the parental peptide)
chain 1 P10V | -9.15 log2 (difference from the parental peptide)
chain 1 P10W | -7.62 log2 (difference from the parental peptide)
chain 1 P10H | -5.73 log2 (difference from the parental peptide)

Variant | enrichment
chain 1 Y14V | -9.22 log2 (difference from the parental peptide)
chain 1 Y14T | -6.13 log2 (difference from the parental peptide)
chain 1 Y14M | -7.75 log2 (difference from the parental peptide)
chain 1 Y14F | -0.356 log2 (difference from the parental peptide)
chain 1 Y14W | -2.89 log2 (difference from the parental peptide)
chain 1 F15Q | -6.18 log2 (difference from the parental peptide)
chain 1 F15Y | -0.776 log2 (difference from the parental peptide)
chain 1 Y5V | -2.43 log2 (difference from the parental peptide)
chain 1 Y5I | -1.67 log2 (difference from the parental peptide)
chain 1 Y5W | 5.05 log2 (difference from the parental peptide)
chain 1 A9E | 1.61 log2 (difference from the parental peptide)
chain 1 A9V | -5.11 log2 (difference from the parental peptide)
chain 1 A9Q | -0.472 log2 (difference from the parental peptide)
chain 1 A9N | -3.98 log2 (difference from the parental peptide)
chain 1 A9P | 2.11 log2 (difference from the parental peptide)
chain 1 A9L | -0.527 log2 (difference from the parental peptide)
chain 1 A9F | -2.3 log2 (difference from the parental peptide)
chain 1 E2P | -4.82 log2 (difference from the parental peptide)
chain 1 E2L | -1.53 log2 (difference from the parental peptide)
